The test system of data set [1] is HeLa cells (human cervical cancer). The data set is described as follows: MTS cytotoxicity assay. It is filed as cell-based. To be noted: quadruplicate, read-out: inhibitory concentration (IC50), MTS assay. How it is done:
The cytotoxicity of micelles was assessed using the CellTiter96 kit from Promega according to the manufacturer's instructions. Briefly, HeLa cells (human cervical cancer) were seeded at a density of 10000 cells per well in a 96-well plate in DMEM media (Invitrogen) supplemented with 10% FBS and AB/AM. […] Cells were incubated for 24, 48, and 72 h in 5% CO2 at 37° C. After the incubation period, the MTS reagent was added to each well and further incubated for 2 h in 5% CO2 at 37° C. Subsequently, 96-well plates were allowed to equilibrate at room temperature and the absorbance was read at 490 nm using a BioTek Epoch micro-plate reader. All quantifications were done using GraphPad Prism 5 software.

Data set [2] has as its system primary B-CLL lymphocytes. In words: Cleaved caspase-3 apoptosis assay. To be noted: primary patient CLL cells, 24 and 48 h. It is filed as cell-based, human. How it is done:
Primary B-CLL lymphocytes were maintained in RPMI complemented with 10% fetal bovine serum (FBS). BMS2 stromal cell line were maintained in Dulbecco's modified eagle medium (DMEM) supplemented with 10% FBS.BMS2 cells were plate at 70×10^4 cells/ml in 24 well plates before coculture with primary B-CLL lymphocytes and incubate at 37° C., 5% C02.
For apoptosis assays, 3×10^6 B-CLL lymphocytes were plated in the presence or absence of stromal cell (BMS2) and incubate 1 h at 37° C., 5% CO2. Cells were then treated with vehicle, micelle, BKM120, and micelle encapsulated BKM120 for 24 and 48 h.
Cells were harvested, washed with PBS then fixed 10 min with 1% paraformaldehyde. After washing, cells were permeabilized and nonspecific sites blocked in PBS containing 3% FBS and 0.01% triton X100. Cells were then incubated 1 h with an anti-caspase-3 FITC conjugated antibody then analyzed with a FACSCalibur flow cytometer. (See FIG. 16).

Data set [3] can be described thus: Dynamic light scattering of DNA-conjugate micelles (hydrodynamic radius, self-assembly). To be noted: 25° C.; for self-assembly / scattering by DLS: 10 μM in magnesium containing (TAMg) buffer; for Single-stranded Rh (hydrodynamic radius by DLS): 10 μM in TAMg buffer; for Single-stranded Rh (hydrodynamic radius by DLS) / Double-stranded Rh (hydrodynamic radius by DLS): mean of at least triplicate ± SD. It is filed as physicochemical. The protocol: The conjugates described herein can be further characterized with regard to their self-assembly behavior. To probe the self-assembly in solution, dynamic light scattering (DLS) was used to determine the presence, and hydrodynamic radius, of micellar aggregates.
Dynamic Light Scattering (DLS) experiments were carried out using a DynaPro™ Instrument from Wyatt Technology. A cumulants fit model was used to confirm the presence and determine the size of a monomodal population of micellar aggregates. Sterile water and TAMg buffer were filtered using a 0.45 μm nylon syringe filter before use for DLS sample preparation. All measurements were carried out at 25° C.
This size correlates with DNA-based spherical micelles and is consistent with the tight packing of the HE chains in a hydrophobic core with a charged corona made up of DNA.
To investigate the effect of block pattern on the amphiphilic self-assembly in solution, DLS measurements were carried out for the HE/HEG series. Samples were annealed in TAMg buffer at 10 μM, and measured at 25° C. […] Furthermore, the effect of the positioning of the blocks with respect to the oligonucleotide portion also appears to be a major factor in the self-assembly: the terminal HE6 results in micellization, whereas a central HE6 block prevents aggregation.

Data set [4] can be described thus: Fluorescence of encapsulated Nile Red. It is filed as physicochemical. To be noted: conjugate 10 μM in TAMg, excitation 535 nm. How it is done: DNA-conjugates (10 μM) in TAMg buffer (60 μL) were thermally annealed (95 to 4° C., 4 hours). The samples were transferred to glass vials and 1.5 μL of Nile Red solution ([…], acetone) was added, to give a final Nile Red concentration of 2.5 μM. The samples were vortexed briefly, sealed and incubated overnight at room temperature in the absence of light. Fluorescence spectra were recorded at room temperature in a 50 μL quartz cuvette using an excitation wavelength of 535 nm, and monitoring emission between 560 and 750 nm, with excitation and emission slit widths both set at 10 nm.
The sequence-specific self-assembly was also assessed using encapsulation of Nile Red (FIG. 5). In this case a small increase in fluorescence was seen as the block size increased from one to three HE units, consistent with a degree of intramolecular collapse of adjacent HE units, generating progressively larger hydrophobic domains as the block size increases, akin to beads on a string. […] A small, but repeatedly measurable, […] of the maximum emission from the bola-amphiphile (640 nm) with respect to the linear amphiphile (645 nm) was also observed, which is indicative of Nile Red in a more polar environment P. Greenspan, S. D. Fowler, J. Lipid Res. 1985, 26, 781-789). […]

For data set [5], the system named is complement strand (Acomp). In words: Thermal denaturation of duplexes with complement strand by UV absorption; native PAGE. The data set is classed as physicochemical. To be noted: between DNA and HE12-DNA, duplex with Acomp 2.5 μM in TAMg. The protocol:
The hybridization of the DNA amphiphiles to their complement strands was confirmed by measurement of the thermal denaturation of the duplexes by UV absorption. For each experiment equimolar amounts of DNA amphiphile and complement strand (Acomp, see Table 1) were combined in TAMg buffer to give a final volume of 150 μL with a duplex concentration of 2.5 μM. Samples were thermally annealed (95 to 4° C., 4 hours) before transfer to a quartz cuvette. Absorbance at 260 nm was monitored over the appropriate temperature range. Typical sigmoidal melting curves were obtained for the hybridization of the complementary strand Acomp to DNA control, discrete (HE-HEG)6-DNA and HE12-DNA micelles. […] Native Polyacrylamide Gel Electrophoresis (PAGE) was carried out at room temperature for 2 hours at a constant voltage of 250V. Sample loading was 0.01 OD260 DNA per lane. Single-stranded samples were annealed (95 to 4° C., 4 hours) prior to loading on the gel to promote uniform assembly. Double-stranded samples were similarly annealed (with Acomp, see Table 1) to provide 25 μL of 10 μM duplex in 1×TAMg. The DNA bands were visualized by incubation with GelRedTM. Thermal denaturation and gel electrophoresis concluded that all of the HEx-DNA molecules retained their ability to hybridize to a complementary DNA strand, highlighting the orthogonal nature of these differing modes of intermolecular self-assembly. […]

A short description of data set [6]: BKM120 loading of HE12-DNA micelles by RP-HPLC and UV-Vis. It is filed as physicochemical. To be noted: HPLC peak areas, standard curves. How it is done:
BKM120 was prepared as a 10 mM working solution in chloroform. Loading of the structures was achieved by adding 20 μL of BKM120 to a glass vial, followed by solvent evaporation in open air to achieve a thin drug film. HE12-DNA micelles were pre-assembled in 1×TAMg (100 μL at […]) and subsequently added to the drug film. The final solution was 100 μL with excess BKM120 (2 mM). The mixture was vortexed heavily to allow re-suspension of the drug molecules, and was incubated overnight at room temperature. Alternatively, drug loading could also be obtained by a different method. […]
RP-HPLC and UV-Vis spectroscopy were used to determine the amount of BKM120 loaded in the DNA micelles, For HPLC, 60 μL of the purified supernatant was injected into a Hamilton PRP-1 5 μm 100 Å 2.1×150 mm column. […] The products were also detected using a drug-only channel at 320 nm (BKM 120 maximum absorption peak).
For UV-Vis spectroscopy experiments, 20 μL of the purified supernatant was mixed with 80 μL of DMSO, and the absorbance (200 nm-500 nm) was measured. The presence of BKM120 was monitored by the absorbance at 320 nm using a Biotek Synergy HT well-plate spectrometer. […]
The amount of incorporated BKM 120 was calculated by measuring HPLC peak areas of BKM 120 and DNA. […]

With `Nc1cc(C(F)(F)F)c(-c2cc(N3CCOCC3)nc(N3CCOCC3)n2)cn1` [BKM120], in data set [1], the IC50 was found to be 2 µM. The “amount of caspase (cleaved caspase-3)” value in data set [2] is given as “same amount”.
In the case of “(HE2-HEG2)3-DNA: DDHHDDHHDDHHTTTTTCAGTTGACCATATA; D dodecane-diol, H hexaethyloxy glycol residues (dodecane-diol and hexaethylene glycol units conjugated, chemistry not fully specified)”, the “self-assembly / scattering by DLS” value in data set [3] is on record as “did not exhibit self-assembly”.
For “(HE3-HEG3)2-DNA: DDDHHHDDDHHHTTTTTCAGTTGACCATATA; D dodecane-diol, H hexaethyloxy glycol residues (dodecane-diol and hexaethylene glycol units conjugated, chemistry not fully specified)”, in data set [3], the “self-assembly / scattering by DLS” value is given as “did not exhibit self-assembly”.
With “(HE-HEG)6-DNA: DHDHDHDHDHDHTTTTTCAGTTGACCATATA; D dodecane-diol, H hexaethyloxy glycol residues (dodecane-diol and hexaethylene glycol units conjugated, chemistry not fully specified)”, the “self-assembly / scattering by DLS” value in data set [3] is “did not exhibit self-assembly”.
Consider “HE6-DNA: DDDDDDTTTTTCAGTTGACCATATA; D = residue from DMT-dodecane-diol amidite (dodecane-diol (HE) units conjugated, chemistry not fully specified)”, for which, in data set [3], the “Single-stranded Rh (hydrodynamic radius by DLS)” value (“Single-stranded Rh” below) turned out to be 6.5±0.4 nm, the “self-assembly / scattering by DLS” value was “strong scattering” and the “Double-stranded Rh (hydrodynamic radius by DLS)” value (from here on “Double-stranded Rh”) amounted to 5.6 ± 0.1 nm. Moreover, the “Single-stranded Rh” value in data set [3] (listed as HE6) is reported as 6.5 ± 0.4 nm.
Consider “HE6-HEG6-DNA: DDDDDDHHHHHHTTTTTCAGTTGACCATATA; D dodecane-diol, H hexaethyloxy glycol residues (dodecane-diol and hexaethylene glycol units conjugated, chemistry not fully specified)”, for which, in data set [3], the “Single-stranded Rh” value turned out to be 9.7±0.9 nm, the “self-assembly / scattering by DLS” value is on record as “strong scattering” and the “Double-stranded Rh” value amounted to 10.0 ± 0.2 nm. Besides, the “Single-stranded Rh” value in data set [3] (listed as HE6-HEG6) is listed as 9.7 ± 0.1 nm. In data set [4], the “maximum emission of encapsulated Nile Red” value is reported as 645 nm.
“HE12-DNA: DDDDDDDDDDDDTTTTTCAGTTGACCATATA; D = residue from DMT-dodecane-diol amidite (dodecane-diol (HE) units conjugated, chemistry not fully specified)”: in data set [3], the “Single-stranded Rh” value is recorded as 11.3±0.1 nm and the “Double-stranded Rh” value is given as 11.3 ± 0.1 nm. Further, in data set [3] (listed as HE12), the “Single-stranded Rh” value is recorded as 11.3 ± 0.7 nm. Besides, the “change in melting temperature” value in data set [5] worked out at 3 °C. In data set [6], the “BKM120 molecules incorporated per HE12-DNA conjugate unit” value came to 8.
Consider “HEG6-HE6-DNA: HHHHHHDDDDDDTTTTTCAGTTGACCATATA; D dodecane-diol, H hexaethyloxy glycol residues (dodecane-diol and hexaethylene glycol units conjugated, chemistry not fully specified)”, for which, in data set [4], the “maximum emission of encapsulated Nile Red” value is 640 nm.

(Values after patent US20190060324A1, “POLYNUCLEOTIDE-POLY(DIOL) CONJUGATES, PROCESS OF PREPARATION AND USES THEREOF” (THE ROYAL INSTITUTION FOR THE ADVANCEMENT OF …, priority 2014, published 2019).)
